Assay results as given in paper PMC3162602, “Laforin, a Dual Specificity Phosphatase Involved in Lafora Disease, Is Present Mainly as Monomeric Form with Full Phosphatase Activity” (PLoS ONE, 2011).
Values belong to the molecule of their own block, whether it stands above or below them.

Assays:
Hs-laforin-HIS6 (human) = Hs-laforin-HIS6 (human) (UniProt O95278); experiment: SEC; Ni-NTA-purified Hs-laforin-HIS6 on HiLoad 16/60 Superdex 75; two peaks, A (dimer) and B (monomer)
[1] = target: Cm-laforin-HIS6 (Cyanidioschyzon merolae); experiment: SEC; SEX4-HIS6 on Superdex-75 and Cm-laforin-HIS6 on Superdex-200 after Ni-NTA; multiple peaks
[2] = target: the molecule itself; experiment: as above

stoichiometry N (Hs-laforin-HIS6 (human)): 2
Molecule: Hs-laforin-HIS6 (from UniProt O95278 1-331) (enzyme)

stoichiometry N [1]: 2
Molecule: Cm-laforin-HIS6 (enzyme)

B1: At-SEX4-HIS6(Δ81) (enzyme, Arabidopsis thaliana, UniProt Q9FEB5 82-379, looked up)
chain: QAMGAVLTYRHELGMNYNFIRPDLIVGSCLQTPEDVDKLRKIGVKTIFCLQQDPDLEYFGVDISSIQAYAKKYSDIQHIRCEIRDFDAFDLRMRLPAVVGTLYKAVKRNGGVTYVHCTAGMGRAPAVALTYMFWVQGYKLMEAHKLLMSKRSCFPKLDAIRNATIDILTGLKRKTVTLTLKDKGFSRVEISGLDIGWGQRIPLTLDKGTGFWILKRELPEGQFEYKYIIDGEWTHNEAEPFIGPNKDGHTNNYAKVVDDPTSVDGTTRERLSSEDPELLEEERSKLIQFLETCSEAEV
notes: SEX4 (Starch EXcess4), Arabidopsis thaliana glucan phosphatase; construct pET21a At-SEX4-HIS6(Δ81), printed as a 32 kDa protein; Δ81 read as lacking the first 81 residues; also called Starch EXcess4; source: bacteria (E. coli), purified (Ni-NTA, Superdex-75)
stoichiometry N [2]: 2
